This is an account of results in paper PMC10514136, “Peptide-conjugated antimiRs improve myotonic dystrophy type 1 phenotypes by promoting endogenous MBNL1 expression” (Molecular Therapy. Nucleic Acids, 2023).

Values joined by “and” are separate entries in the source; they are usually repeats but may differ in a detail not shown here. Equal values may be shown once.

For one data set, the system named is Clcn1 exon 7a. Kind of data set: Alternative splicing of Clcn1 exon 7a in muscle by RT-PCR (PSI, splice recovery). The format is in vivo, mouse. Conditions: HSALR mice, individual mice; for Percentage spliced-in (PSI) Clcn1 Gast: 9.2 mg/kg (mean) i.v. x3, day 45, gastrocnemius; for Percentage spliced-in (PSI) Clcn1 Quads: 9.2 mg/kg (mean) i.v. x3, day 45, quadriceps. On the procedure:
Total RNA from murine gastrocnemius and quadriceps muscle was isolated using the miRNeasy Mini Kit (QIAGEN, Hilden, Germany) according to the manufacturer’s instructions. One microgram of RNA was digested with DNase I (Invitrogen, Carlsbad, CA) and reverse transcribed with SuperScript II (Invitrogen) using random hexanucleotides. For subsequent PCR reactions, 20 ng of cDNA was used with GoTaq polymerase (Promega). Specific primers were used to analyze the alternative splicing of Nfix, Atp2a1, and Clcn1 in mouse samples (both muscles). Gapdh levels established the endogenous reference levels using 0.2 ng of cDNA. PCR products were separated on a 2% agarose gel and quantified using ImageJ software (NIH, Bethesda, MD). PSR index was defined as value%SI minus X¯%DSI , divided by X¯%DSI minus X¯%HSI (SI, splicing inclusion of each sample; DSI, disease splicing inclusion; HSI, healthy splicing inclusion). Overall, PSR indicates the amount in both muscles analyzed. Primer sequences and exons analyzed are available in Cerro-Herreros et al.[20] In the case of off-targets, interleukins, and muscle regeneration marker Mstn-1, primers sequences are available in Table S5. We used 1 ng of mouse tissue cDNA as a template for multiplex qPCR using the QuantiFast Probe PCR Kit reagent. Commercial TaqMan probes (QIAGEN) were used for mouse (Mbnl1 and Mbnl2; FAM-labeled probes) and reference (GAPDH; MAX-labeled probe) genes. Results were normalized to Gapdh endogenous gene expression.
We used homozygous transgenic HSA^LR (line 20 b) mice,[90] which were kindly provided by Dr Thornton (Rochester, NY) and were housed and bred in our animal facility. Experimental groups were FVB as healthy control and HSA^LR treated with a scrambled ON (SC) and PBS as negative controls, and HSA^LR mice treated with all six experimental CPP-PMOs. The mice were randomly allocated to the different treatments as follows: in each cage, each mouse was ear-marked as it was taken out, and each mouse was then assigned to a different treatment. […] Mice were sacrificed 45 days after the first injection and the tissues of interest were frozen in liquid nitrogen for the molecular and histological assays. All the mice used in this study ranged from 5 to 5.5 months of age and all were males.

Data set [1] relates to HSALR mice. The data set is described as follows: Serum biochemistry profile. It counts as in vivo, mouse. From the text:
(§1) Mouse handling and experimental procedures followed the European law regarding laboratory animal care and experimentation (2003/65/C.E.) and were approved by Conselleria de Agricultura, […] (reference no. A1539961490857). We used homozygous transgenic HSA^LR (line 20 b) mice,[90] which were kindly provided by Dr Thornton (Rochester, NY) and were housed and bred in our animal facility. […] The mice were randomly allocated to the different treatments as follows: in each cage, each mouse was ear-marked as it was taken out, and each mouse was then assigned to a different treatment. Animals were injected biweekly intravenously with 150 μL of 1× PBS vehicle (controls; […] Mice were sacrificed 45 days after the first injection and the tissues of interest were frozen in liquid nitrogen for the molecular and histological assays. All the mice used in this study ranged from 5 to 5.5 months of age and all were males. At 45 days post treatment, animals were sacrificed, and blood was collected by cardiac puncture exsanguination with K3-EDTA (Sarstedt, Nümbrecht, Germany). The samples were analyzed by Laboratorios Montoro Botella (Valencia, Spain).

For data set [2], the system named is HSALR mice. The data set is described as follows: White blood cell differential count. The format is in vivo, mouse.
Source text: as §1

The next data set concerns Mbnl1 protein. Kind of data set: Western blot of Mbnl1 in mouse muscle. Details: scale not given here. Conditions: HSALR mice, quadriceps, same value given for every mouse of a treatment group. It counts as in vivo. The procedure:
A 96-well plate QDB assay was used[87] to determine MBNL1 protein levels in all replicates and concentrations of each ON tested. This technique allows for high-throughput screening of low protein concentration samples over conventional western blot (WB) (Figure S9).[88] Cell samples (1 μg/well) and mice samples (2 μg/well) were prepared with 4× loading buffer, denatured (100°C for 5 min) and loaded in QDB plates (Quanticision Diagnostics, Research Triangle Park, NC). For the quantification of in vitro samples, the QDB was performed exactly as described in Moreno et al.[87] Each cell sample was loaded in quadruplicate in two different plates; one was used to detect MBNL1 (it was incubated overnight with primary mouse anti-MBNL1 [1:1,000, Abcam, ab77017]) and the other for GAPDH (it was incubated overnight with primary mouse anti-GAPDH [1:500, Santa Cruz, clone G-9]), which was used here as an endogenous control. For Mbnl1 quantification in mouse muscle tissues, we implemented the following modifications: each sample was loaded in quadruplicate on three different plates. One was used to detect Mbnl1 with a mouse MB1a(4A8) antibody (DSHB, Iowa City, IA) using a 1:200 dilution. A second plate was used to quantify tubulin (endogenous normalization control) with a mouse 12G10 antibody (DSHB) using a 1:1,000 dilution. A third plate was used to quantify IgG signal (negative control to subtract background) using an anti-mouse-IgG secondary antibody (Sigma-Aldrich) at 1:3,500 dilution. This subtraction was necessary due to an unspecific IgG signal could be observed in mouse samples (Figures S10A–S10D). All primary antibodies were detected using horseradish peroxidase-conjugated anti-mouse-IgG secondary antibody (1:5,000 for the anti-mouse plate, 1:2,000 for cell plates, and 1:3,500 for mouse plates [Sigma-Aldrich, MO]). Immunoreactive bands were detected using Pierce ECL Western reagent (Thermo Scientific), and luminescence levels were determined using an Infinite M200 PRO plate reader (Tecan). The validity of this correction for QDB quantification of mouse samples was confirmed by performing a series of experiments determining both the window of linearity of the assay (2–5 μg protein, Figures S10A–S10B) and the comparison with data obtained by WB in a subset of samples (Figures S10E–S10H), obtaining a correlation of 0.9927 for MBNL1 and 0.8678 for tubulin (in the case of quadriceps), and 0.9821 for MBNL1 and 0.9699 for tubulin (in gastrocnemius). For WB assay in quadriceps (Figure S10I), samples were loaded in pools of each treatment to have a representative WB of all the treatments tested. WB assay was performed as described previously.[20]

[3] abbreviates: HSALR mice, 9.2 mg/kg (mean) i.v. x3, day 45, serum, mean ± sd, n = 5.
The mark [4] stands for this setting: HSALR mice, 9.2 mg/kg (mean) i.v. x3, day 45, blood, differential count, mean ± sd.

For “9b2KC-23b (antisense GGUAAUCCCUGGCAAUGUGAU; all phosphorodiamidate morpholino (PMO), T or U not given here; Pip9b2KC peptide conjugated)”, in the data set on Clcn1 exon 7a, the “Percentage spliced-in (PSI) Clcn1 Gast” value is 18.78% and 26.33% and 30.11% and 15.58% and 38.58%; the “Percentage spliced-in (PSI) Clcn1 Quads” value was 29.66% and 22.47% and 19.41% and 27.99% and 26.94%. Also, in the data set on HSALR mice [1] (mouse, in vivo, iv, 9.2 mg/kg), the ALT is on record as 45,20 ± 1,303 U/L, the “Alkaline Phosphatase” value is reported as 58,8 ± 5,718 U/L, the Amylase is given as 2952,6 ± 123,373 U/L and the “Bile Acids” value was 8,40 ± 8,264 µmol/L. Moreover, in the data set on HSALR mice [1] (mouse, in vivo, iv, 9.2 mg/kg), the Bilirubin is 0,10 ± 0,045 mg/dL, the Creatinine is listed as 0.20 ± 0,071 mg/dL, the Lipase is listed as 30,6 ± 6,730 U/L and the Urea is listed as 43,6 ± 6,580 mg/dL. In the data set with HSALR mice [2] (mouse, in vivo, iv, 9.2 mg/kg), the Basophils was 0 ± 0%, the Eosinophils is 9,50 ± 3,109%, the Lymphocytes was 60,25 ± 6,185% and the Monocytes was 5,75 ± 2,363%. In the data set with HSALR mice [2] (mouse, in vivo, iv, 9.2 mg/kg), the Seg cells is on record as 23,5 ± 4,203%. For the same substance, the “Mbnl1 Quads, WB assay” value in the data set with Mbnl1 protein (western blot) came out at 1.36.

On to “9b2KC-218 (antisense ACAUGGUUAGAUCAAGCACAA; all phosphorodiamidate morpholino (PMO), T or U not given here; Pip9b2KC peptide conjugated)”, for which, in the data set with Clcn1 exon 7a, the “Percentage spliced-in (PSI) Clcn1 Gast” value was 32.73% and 22.25% and 31.59% and 22.57% and 29.41%; the “Percentage spliced-in (PSI) Clcn1 Quads” value was 2.19% and 27.06% and 25.84% and 30.53% and 22.73%. Moreover, in the data set on HSALR mice [1] (mouse, in vivo, iv, 9.2 mg/kg), the ALT is given as 47 ± 10 U/L, the “Alkaline Phosphatase” value is listed as 59,8 ± 6,300 U/L, the Amylase is 2593,4 ± 987,253 U/L and the “Bile Acids” value was 55,20 ± 107,339 µmol/L. In addition, in the data set with HSALR mice [1] (mouse, in vivo, iv, 9.2 mg/kg), the Bilirubin is on record as 0,112 ± 0,026 mg/dL, the Creatinine is given as 0,22 ± 0,084 mg/dL, the Lipase is on record as 134,4 ± 227,401 U/L and the Urea is 41 ± 1,871 mg/dL. Further, in the data set with HSALR mice [2] (mouse, in vivo, iv, 9.2 mg/kg), the Basophils was determined as 0 ± 0%, the Eosinophils is on record as 7,20 ± 2,28%, the Lymphocytes was 59,60 ± 3,130% and the Monocytes was 6,40 ± 2,074%. In the data set on HSALR mice [2] (mouse, in vivo, iv, 9.2 mg/kg), the Seg cells is reported as 25,8 ± 4,324%. Moreover, the “Mbnl1 Quads, WB assay” value with Mbnl1 protein (protein) is recorded as 1.44.

As for “TCTTACCTCAGTTACAATTTA-Pip9b2 [Scramble, reference compound]”, in the data set with Clcn1 exon 7a, the “Percentage spliced-in (PSI) Clcn1 Gast” value is 12.37% and 14.67% and 42.81% and 26.86% and 36.37%; the “Percentage spliced-in (PSI) Clcn1 Quads” value was 28.91% and 16.71% and 28.33% and 34.05% and 38.65%. Moreover, in the data set on HSALR mice [1] (setting [3]), the ALT is recorded as 47,6 ± 11,327 U/L, the AST is reported as 129,60 ± 33,687 U/L, the “Alkaline Phosphatase” value is recorded as 61 ± 6,557 U/L and the Amylase is listed as 3234,2 ± 476,489 U/L. For the same substance, in the data set with HSALR mice [1] (setting [3]), the “Bile Acids” value was 3,38 ± 5,188 µmol/L, the Bilirubin is on record as 0,118 ± 0,026 mg/dL, the C.P.K. is reported as 763 ± 244,663 U/L and the Creatinine is 0,20 ± 0 mg/dL. Also, in the data set on HSALR mice [1] (setting [3]), the Glucose is listed as 113,60 ± 35,352 mg/dL, the L.D.H. is listed as 2438,8 ± 183,91 U/L, the Total cholesterol was 224,40 ± 11,216 mg/dL and the Triglycerides was 259,8 ± 56,287 mg/dL. In addition, in the data set with HSALR mice [2] (setting [4]), the Basophils is recorded as 0 ± 0%, the Eosinophils is 2 ± 0,707%, the Lymphocytes is 60 ± 14,543% and the Monocytes is listed as 11,60 ± 7,829%. Also, in the data set with HSALR mice [2] (setting [4]), the Seg cells is recorded as 25,8 ± 8,349% and the Stab cells is on record as 0,60 ± 0,548%. In addition, in the data set on Mbnl1 protein (protein), the “Mbnl1 Quads, WB assay” value was determined as 1.00.
